Key:
JK18 [1] = test: FP; direct titration
JK16 [2] = test: FP; direct titration
JK18 [3] = test: FP
JK16 [4] = test: FP

Kd (JK18 [1]): 4.1 µM
Kd (JK16 [2]): 6.7 µM
Kd (JK18 [3]): 4.1 µM
Kd (JK16 [4]): 6.7 µM
B1: c-Jun N-terminal kinase 3 (enzyme)
chain: MSLHFLYYCSEPTLDVKIAFCQGFDKQVDVSYIAKHYNMSKSKVDNQFYSVEVGDSTFTVLKRYQNLKPIGSGAQGIVCAAYDAVLDRNVAIKKLSRPFQNQTHAKRAYRELVLMKCVNHKNIISLLNVFTPQKTLEEFQDVYLVMELMDANLCQVIQMELDHERMSYLLYQMLCGIKHLHSAGIIHRDLKPSNIVVKSDCTLKILDFGLARTAGTSFMMTPYVVTRYYRAPEVILGMGYKENVDIWSVGCIMGEMVRHKILFPGRDYIDQWNKVIEQLGTPCPEFMKKLQPTVRNYVENRPKYAGLTFPKLFPDSLFPADSEHNKLKASQARDLLSKMLVIDPAKRISVDDALQHPYINVWYDPAEVEAPPPQIYDKQLDEREHTIEEWKELIYKEVMNSEEKTKNGVVKGQPSPSGAAVNSSESLPPSSSVNDISSMSTDQTLASDTDSSLEASAGPLGCCR
